Laboratory results as given in article doi:10.1101/2021.01.14.426634 (bioRxiv, 2021).
“And” between values parts separate entries of the source, which are not always exact repeats. Equal entries are not always repeated. Where two headings read alike, the source gives them in different places.

Experiments:
[1] = molecular target: Danio rerio calcium hemostasis modulator 1 (drCALHM1), full length, purified channel (Danio rerio) (UniProt E7F2J4); test: cryo-EM structure
[2] = molecular target: Danio rerio calcium hemostasis modulator 1 (drCALHM1), full length, purified channel (Danio rerio) (UniProt E7F2J4); test: cryo-EM structure; remark: listed apart in the source
[3] = molecular target: Danio rerio calcium hemostasis modulator 1 (drCALHM1), full length, purified channel (Danio rerio) (UniProt E7F2J4); test: cryo-EM structure; remark: listed apart in the source
cross-linking [4] = molecular target: the molecule itself; test: cross-linking
cross-linking [5] = molecular target: the molecule itself; test: cross-linking; remark: listed apart in the source

Row | stoichiometry N [1] | stoichiometry N [2] | stoichiometry N [3] | Molecule | stoichiometry N (cross-linking [4]) | stoichiometry N (cross-linking [5])
1 | 8 | 7 | 7 and 8 | Danio rerio calcium hemostasis modulator 1 (drCALHM1), full length, purified channel (from UniProt E7F2J4 1-346) (natural protein) |  | 
2 |  |  |  | Homo sapiens CALHM1 with a 2x FLAG tag at the C-terminus, expressed in HEK293T cells (natural protein, H. sapiens, UniProt Q8IU99 1-346, looked up) MMDKFRMIFQFLQSNQESFMNGICGIMALASAQMYSAFDFNCPCLPGYNAAYSAGILLAPPLVLFLLGLVMNNNVSMLAEEWKRPLGRRAKDPAVLRYMFCSMAQRALIAPVVWVAVTLLDGKCFLCAFCTAVPVSALGNGSLAPGLPAPELARLLARVPCPEIYDGDWLLAREVAVRYLRCISQALGWSFVLLTTLLAFVVRSVRPCFTQAAFLKSKYWSHYIDIERKLFDETCTEHAKAFAKVCIQQFFEAMNHDLELGHTHGTLATAPASAAAPTTPDGAEEEREKLRGITDQGTMNRLLTSWHKCKPPLRLGQEEPPLMGNGWAGGGPRPPRKEVATYFSKV | 7 | 8
